In the supplement of paper PMC10567573:

B1: PLK2 (parent)
chain: YAELGQCSVFPATDAPEQFISQVT

Variants of: B1
Experiment: protein stability index of a GFP-peptide fusion (GPS, HEK-293T) (PSI 1-6); higher = more stable
Conditions: c terminus: a fixed tail appended
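Note: lentivirally expressed fusions sorted by FACS into six bins by GFP to DsRed ratio, PSI derived from sequencing read proportions per bin multiplied by bin number.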

Protein stability index, by site and new letter:
L4: C 2.43 | D 3.96 | N 3.09 | F 2.5 | T 3.05 | H 3.25 | P 3.04 | I 2.5 | A 2.33 | V 2.9 | S 2.86 | E 4.42 | M 2.11 | Q 3.62 | G 3.51 | R 1.99 | K 2.62 | W 3.19 | Y 2.06
V9: M 1.98 | N 3.02 | F 1.67 | P 2.41 | L 1.98 | K 2.88 | G 2.27 | A 2.36 | Y 2.02 | S 3.34 | D 4.25 | E 3.64 | W 2.5 | C 2.42 | H 2.69 | I 2.62 | T 3.12 | R 2.17 | Q 2.71
F10: D 4.2 | V 3.52 | C 3.07 | W 2.96 | S 3.61 | N 3.43 | G 3.27 | Q 3.46 | H 3.43 | A 3.34 | R 3.18 | E 3.68 | L 3.27 | M 3.06 | T 3.47 | K 3.26 | Y 2.4 | P 3.58 | I 2.87
C7: Y 2.12 | W 2.5 | I 1.97 | D 3.04 | T 2.87 | V 2.32 | K 2.23 | A 3.2 | H 1.91 | S 1.87 | R 2.57 | G 2.63 | N 1.89 | P 3.45 | L 1.69 | F 1.78 | E 3.9 | Q 2.36 | M 2.23
Q6: L 2.03 | M 1.54 | E 3.19 | P 2.26 | G 2.04 | A 2.18 | N 2.28 | D 3.3 | C 1.61 | W 2.89 | H 2.02 | K 2.05 | F 2.14 | V 1.94 | I 1.57 | Y 1.95 | T 2.42 | S 2.42 | R 1.69
P11: V 2.33 | L 2.03 | F 3.39 | R 2.21 | D 1.64 | K 2.68 | W 2.82 | Q 1.91 | T 3.65 | S 2.56 | I 3.28 | E 1.33 | G 3.1 | M 2.62 | H 2.32 | N 2.2 | Y 2.31 | A 2.14
S8: F 2.53 | D 3.06 | A 1.87 | Y 1.59 | C 1.64 | L 1.62 | Q 2.08 | P 2.04 | R 1.9 | I 1.75 | V 2 | K 2.04 | H 1.83 | M 1.66 | G 1.93 | W 3.17 | E 3.17 | N 2.57 | T 2.28
A12: K 2.13 | L 1.66 | I 2.07 | E 3.42 | N 2.33 | H 1.93 | M 1.72 | C 1.87 | D 2.81 | G 2.39 | F 2.18
E3: T 1.98 | Y 1.85 | V 2.31 | S 1.82 | W 1.66
G5: P 2.46 | N 2.47 | I 1.72 | A 2.14 | W 3.46 | D 3.32 | T 2.28 | V 2.21 | H 2.52 | S 2.14 | R 2.02 | Q 2.53 | F 2.5 | Y 2.22 | E 3.81 | C 2.24 | M 1.98 | K 2.02 | L 1.57
